Experimental data from publication PMC10954734, “Structure of antiviral drug bulevirtide bound to hepatitis B and D virus receptor protein NTCP” (Nature Communications, 2024).

Assays:
[1] = tested on: SVPs from patient ID1 (HBV GtD); assay: Binding of nanodisc-reconstituted NTCP-eYFP to SVPs of patient ID1 (GtD); settings: 25–100 nM
Description: (§1) The lipids were then mixed with detergent-purified NTCP and incubated at room temperature for 5 min with gentle agitation. Next, membrane scaffold protein (MSP1D1) was added to the mixture and incubated for 20 min at room temperature. […] Bio-Beads were removed by passing through a gravity column (Bio-Rad), and the mixture was briefly spun at 4000 × g at 4 °C to remove excess lipids. […] Peak fractions containing nanodisc-reconstituted NTCP were collected and concentrated.
(§2) Subviral particles (SVPs) were isolated from plasma of two chronic HBV-infected patients by three consecutive ultracentrifugation steps according to published protocols[13]. Briefly, SVP were separated from virions using rate zonal ultracentrifugation through a sucrose density gradient. SVP-containing fractions were pooled and further purified using caesium chloride (CsCl) flotation ultracentrifugation. Pooled SVP-fractions were further purified using a second sucrose density gradient and concentrated by ultrafiltration. […] For fluorescence measurement, 100 μL HBS buffer was added to each well and the fluorescence intensity of eYFP was detected at 485 nm excitation and 535 nm emission on a fluorescence microplate reader (TECAN Life Sciences).

[2] = tested on: SVPs from patient K826 (HBV GtA); assay: Binding of nanodisc-reconstituted NTCP-eYFP to SVPs of patient K826 (GtA); settings: 25–100 nM
Description: as §1, §2

B1: NTCP G158R: nanodisc-reconstituted NTCP-eYFP variant carrying the mutation G158R (protein)
chain: MEAHNASAPFNFTLPPNFGKRPTDLALSVILVFMLFFIMLSLGCTMEFSKIKAHLWKPKGLAIALVAQYGIMPLTAFVLGKVFRLKNIEALAILVCGCSPGGNLSNVFSLAMKGDMNLSIVMTTCSTFCALGMMPLLLYIYSRGIYDGDLKDKVPYKRIVISLVLVLIPCTIGIVLKSKRPQYMRYVIKGGMIIILLCSVAVTVLSAINVGKSIMFAMTPLLIATSSLMPFIGFLLGYVLSALFCLNGRCRRTVSMETGCQNVQLCSTILNVAFPPEVIGPLFFFPLLYMIFQLGEGLLLIAIFWCYEKFKTPKDKTKMIYTAATTEETIPGALGNGTYKGEDCSPCTA
modifications: left off: eYFP, C-terminal, kept | rho-1D4, C-terminal, state not stated
binding to GtD SVPs (in words) [1]: abolished binding to the SVPs
binding to GtA SVPs (in words) [2]: abolished binding to the SVPs
